Publication PMC9352680, “A comprehensive thermodynamic model for RNA binding by the Saccharomyces cerevisiae Pumilio protein PUF4”
Numbering of substitutions follows the chain as printed. Numbers in names are those of the source.

T1: PUF4 RNA-binding domain (Saccharomyces cerevisiae, UniProt P25339 537-888)
T1 sequence: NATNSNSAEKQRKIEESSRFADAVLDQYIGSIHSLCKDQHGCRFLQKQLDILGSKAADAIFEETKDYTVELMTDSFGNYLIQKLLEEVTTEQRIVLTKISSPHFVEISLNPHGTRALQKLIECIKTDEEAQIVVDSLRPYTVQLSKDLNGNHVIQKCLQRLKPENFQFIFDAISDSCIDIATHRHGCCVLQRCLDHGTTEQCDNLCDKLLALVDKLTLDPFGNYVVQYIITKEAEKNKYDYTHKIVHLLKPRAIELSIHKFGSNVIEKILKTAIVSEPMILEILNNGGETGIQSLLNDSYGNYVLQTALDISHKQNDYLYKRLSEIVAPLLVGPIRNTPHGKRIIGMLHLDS

B1: Ic_S2_P4E.1_K4.1_C4.1_H4.1_A4.1_[T7C]_F4.1_[T8A]_[A9C]_T4.1 (ssRNA)
RNA: UUUGAUUAAUAUGAUAUCGUUCUUUCUUGUAUACACUUCUUUCUCGAUAUCAUAUUAAUCUUU
B2: Ic_S2_P4E.1_K4.1_C4.1_H4.1_A4.1_[T7C]_F4.1_[T8A]_[A9T]_T4.1 (ssRNA)
RNA: B1 RNA with C36U
B3: Ic_S2_P4E.1_K4.1_C4.1_H4.1_A4.1_F4.1_T4.1 (ssRNA)
RNA: B1 RNA with C34U, A35U, C36A
B4: Ic_S2_P5E.1_K5.1_C5.1_H5.1_A5.1_[T6C]_[A7C]_F5.1_[T8G]_[T9C]_[A10T]_T5.1 (ssRNA)
RNA: UUUGAUUAAUAUGAUAUCGUUCUUUCUUGUAUCCGCUUUCUUUCUCGAUAUCAUAUUAAUCUUU
B5: Ic_S2_P5E.1_K5.1_C5.1_H5.1_A5.1_[T5C]_[T6A]_[A7G]_F5.1_[T8C]_[T9C]_T5.1 (ssRNA)
RNA: B4 RNA with U32C, C33A, C34G, G35C, U37A
B6: Ic_S2_P5E.1_K5.1_C5.1_H5.1_A5.1_[T5A]_[A7C]_F5.1_[T8A]_[T9C]_[A10C]_T5.1 (ssRNA)
RNA: B4 RNA with U32A, C33U, G35A, U37C
B7: Ic_S2_P5E.1_K5.1_C5.1_H5.1_A5.1_[A7C]_F5.1_[T8C]_[T9C]_[A10T]_T5.1 (ssRNA)
RNA: B4 RNA with C33U, G35C
B8: Ic_S2_P5E.1_K5.1_C5.1_H5.1_A5.1_F5.1_[T8C]_[T9A]_[A10T]_T5.1 (ssRNA)
RNA: B4 RNA with C33U, C34A, G35C, C36A
B9: Ic_S2_P5E.1_K5.1_C5.1_H5.1_A5.1_[T5A]_[A7C]_F5.1_[T8C]_[T9C]_T5.1 (ssRNA)
RNA: B4 RNA with U32A, C33U, G35C, U37A
B10: Ic_S2_P5E.1_K5.1_C5.1_H5.1_A5.1_[T5C]_[T6A]_[A7T]_F5.1_[T8G]_[T9G]_[A10T]_T5.1 (ssRNA)
RNA: B4 RNA with U32C, C33A, C34U, C36G
B11: Ic_S2_P5E.1_K5.1_C5.1_H5.1_A5.1_[T6G]_[A7T]_F5.1_[T8C]_[T9A]_[A10C]_T5.1 (ssRNA)
RNA: B4 RNA with C33G, C34U, G35C, C36A, U37C
B12: Ic_S2_P5E.1_K5.1_C5.1_H5.1_A5.1_[T5G]_F5.1_[T8A]_[T9A]_T5.1 (ssRNA)
RNA: B4 RNA with U32G, C33U, C34A, G35A, C36A, U37A
B13: Ic_S2_P5E.1_K5.1_C5.1_H5.1_A5.1_[T6A]_[A7T]_F5.1_[T8C]_[T9G]_[A10C]_T5.1 (ssRNA)
RNA: B4 RNA with C33A, C34U, G35C, C36G, U37C
B14: Ic_S2_P5E.1_K5.1_C5.1_H5.1_A5.1_[T6C]_F5.1_[T8A]_[T9A]_[A10C]_T5.1 (ssRNA)
RNA: B4 RNA with C34A, G35A, C36A, U37C
B15: Ic_S2_P5E.1_K5.1_C5.1_H5.1_A5.1_[T5G]_F5.1_[T8A]_[T9C]_[A10C]_T5.1 (ssRNA)
RNA: B4 RNA with U32G, C33U, C34A, G35A, U37C
B16: Ic_S2_P5E.1_K5.1_C5.1_H5.1_A5.1_[T5C]_[T6C]_[A7G]_F5.1_[T8A]_[T9C]_[A10C]_T5.1 (ssRNA)
RNA: B4 RNA with U32C, C34G, G35A, U37C
B17: Ic_S2_P5E.1_K5.1_C5.1_H5.1_A5.1_[T5C]_[A7C]_F5.1_[T9C]_[A10G]_T5.1 (ssRNA)
RNA: B4 RNA with U32C, C33U, G35U, U37G
B18: Ic_S2_P5E.1_K5.1_C5.1_H5.1_A5.1_[T5C]_[T6G]_[A7T]_F5.1_[T8C]_[T9C]_[A10C]_T5.1 (ssRNA)
RNA: B4 RNA with U32C, C33G, C34U, G35C, U37C
B19: Ic_S2_P5E.1_K5.1_C5.1_H5.1_A5.1_[T6C]_[A7G]_F5.1_[T8G]_T5.1 (ssRNA)
RNA: B4 RNA with C34G, C36U, U37A
B20: Ic_S2_P5E.1_K5.1_C5.1_H5.1_A5.1_[T5C]_F5.1_[T8A]_[T9A]_T5.1 (ssRNA)
RNA: B4 RNA with U32C, C33U, C34A, G35A, C36A, U37A
B21: Ic_S2_P5E.1_K5.1_C5.1_H5.1_A5.1_[T5C]_[A7C]_F5.1_[T8A]_[T9G]_[A10C]_T5.1 (ssRNA)
RNA: B4 RNA with U32C, C33U, G35A, C36G, U37C
B22: Ic_S2_P5E.1_K5.1_C5.1_H5.1_A5.1_[T5C]_[T6A]_[A7T]_F5.1_[T9A]_T5.1 (ssRNA)
RNA: B4 RNA with U32C, C33A, C34U, G35U, C36A, U37A
B23: Ic_S2_P5E.1_K5.1_C5.1_H5.1_A5.1_[T5C]_[T6G]_[A7C]_F5.1_[T8G]_[T9C]_[A10C]_T5.1 (ssRNA)
RNA: B4 RNA with U32C, C33G, U37C
B24: Ic_S2_P5E.1_K5.1_C5.1_H5.1_A5.1_[T6A]_[A7G]_F5.1_[T9A]_[A10C]_T5.1 (ssRNA)
RNA: B4 RNA with C33A, C34G, G35U, C36A, U37C
B25: Ic_S2_P5E.1_K5.1_C5.1_H5.1_A5.1_[T5A]_[T6C]_[A7T]_F5.1_[T8C]_[T9A]_T5.1 (ssRNA)
RNA: B4 RNA with U32A, C34U, G35C, C36A, U37A
B26: Ic_S2_P5E.1_K5.1_C5.1_H5.1_A5.1_[T5C]_[T6A]_[A7C]_F5.1_[T9G]_[A10G]_T5.1 (ssRNA)
RNA: B4 RNA with U32C, C33A, G35U, C36G, U37G

Target: T1, PUF4 RNA-binding domain
Assay: Mg; RNA-MaP; 20 mM Na-HEPES pH 7.4, 30 mM KOAc, 0.75 mM MgCl2, 0.1% Tween-20, 5% glycerol, 0.1 mg/mL BSA, 2 mM DTT; 25 C; 0.0125-409.6 nM protein
Conditions: tags: N-His6-TEV cleaved; C-SNAP kept, Cy3B-labelled; label: tethered on chip by stalled RNA polymerase

Row | Binder | Kd
1 | B1 | 60.4 nM
2 | B2 | 16.4 nM
3 | B3 | 0.224 nM
4 | B4 | 596 nM
5 | B5 | 119 nM
6 | B6 | 545 nM
7 | B7 | 142 nM
8 | B8 | 444 nM
9 | B9 | 669 nM
10 | UCUCUUUAUAUAUGAUCUCUU (ssRNA) [Ib_S1_P4E.1_K4.1_C4.1_H4.1_[G2A]_A4.1_F4.1_[T8G]_T4.1] | > 2300 nM
11 | B10 | 45.8 nM
12 | B11 | 293 nM
13 | B12 | 656 nM
14 | B13 | 21.9 nM
15 | B14 | 170 nM
16 | B15 | 832 nM
17 | B16 | 1140 nM
18 | B17 | 152 nM
19 | B18 | 167 nM
20 | B19 | 37.7 nM
21 | UCUCUUUCUAUAUUAUCUCUU (ssRNA) [Ia_S1_P4E.1_K4.1_C4.1_H4.1_[G2C]_A4.1_F4.1_T4.1] | 1380 nM
22 | UCUCUUUAUAUAUCAUCUCUU (ssRNA) [Ib_S1_P4E.1_K4.1_C4.1_H4.1_[G2A]_A4.1_F4.1_[T8C]_T4.1] | 1060 nM
23 | B20 | 55.1 nM
24 | B21 | 818 nM
25 | B22 | 0.373 nM
26 | B23 | 548 nM
27 | B24 | 2.48 nM
28 | B25 | 1040 nM
29 | B26 | 4.81 nM
